The data set has as its system Saccharomyces cerevisiae. Description: transcriptional activation domain activity (GFP:mCherry ratio, weighted mean of sorted bins, harmonized to initial dataset scale) (arbitrary fluorescence ratio units); higher = stronger transcriptional activation. Conditions: beta-estradiol 1 µM; induction time 4 h. Here is the method: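 53-aa protein tiles (fungal proteins plus yeast TF control tiles) fused C-terminally to a DBD-estrogen-binding domain-mCherry synthetic TF, integrated in S. cerevisiae (URA3 locus) with a GFP reporter. Cells were induced with 1 uM beta-estradiol for 4 h at 30 C, FACS-sorted into 8 bins by GFP:mCherry ratio and barcodes sequenced. Activity is the read-weighted mean bin fluorescence (GFP:mCherry), averaged over barcodes (median 12); tiles under 50 reads were discarded. New active-learning values were harmonized by linear fit onto the scale of the initial (Hummel et al.) dataset. The assay saturates at low and high signal.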

With “RISPGFIKKRRSSQTRQDEDHWQRVRELENQSSLYYLPIHEETPFFIDLIPNG”, the “transcriptional activation domain activity” value worked out at 76200.

“MFFRRFLMYFVELTGIMYCLIVFFMVSLFLLYRRNMIEEQFPNKTIILYGKRV”: the “transcriptional activation domain activity” value is 58500.

For “QVCFLGLSFRCVIGIDQMRCRSGYCSFVSLLYTLGNLSGVFSGIFAYAFSHLN”, the “transcriptional activation domain activity” value is 66500.

As to “EDSEPEPQPQKSQSRRRQSRGRGRRGGDSDNESVARSDVSASGGRRNRQRKQK”, the “transcriptional activation domain activity” value was determined as 22200.

Turning to “LKSKALDAKVPIGLFTVLFFHPFLFPFCSLFPALFAPSFLFLFPLCFVTHFFL”, the “transcriptional activation domain activity” value is 52400.

On to “TSSSTAAPAVKRDEKPVKEKKPPAPQAPLEPGAVPEKRKRGRPRKVVSPPVPV”, for which the “transcriptional activation domain activity” value amounted to 49500.

Turning to “KQYCVRPNSGRIEAGKEVEVQVLLQAMKEDPPADAKCRDKFLVQSVAISADKE”, the “transcriptional activation domain activity” value amounted to 17800.

Consider “MGLTVFSILYIPLNIIPPFFCCCLYIYHCFSFFSSTFILFFFFFGTVFAQVIL”, for which the “transcriptional activation domain activity” value came to 53200.

Regarding “MVFGGIFFQLRGCAVGWSLGYSVSCFFLFFLFVFYAVSFLVWSGCGFLFSFFF”, the “transcriptional activation domain activity” value is 62700.

Turning to “KKLHLESEEDAEYIVAKAIRDGVIEAQVNHERGEMTSRETGDVYSTNEPQAQL”, the “transcriptional activation domain activity” value is less than 6570.

Turning to “MYVLARVRMFSSGSRLLRLDRVRGYMLWLILLVVYVYLALTCISFRPPFFYHS”, the “transcriptional activation domain activity” value is 71600.

In the case of “MSFLGLSFFAYLLGVGWILLFCLSFGLPQPLSFITWDCLTRGGFFFLLYFFCF”, the “transcriptional activation domain activity” value was found to be 44500.

On to “KAAAMKKVLAKPADKTKKTSSAKNDTKKAAAKAAATKPKARTTKTAKAAAATK”, for which the “transcriptional activation domain activity” value is 7370.

In the case of “ALDSEQRRKGMSKPAPKKRGRKPNPNKKPKPPRDPNEPPKKRGRKPNPNKKVT”, the “transcriptional activation domain activity” value turned out to be 42300.

Regarding “MFMSTLLLVFIHYGWAFFLGCCLWCFVISLCFWYVKLWLLVGCYILVLCDVAR”, the “transcriptional activation domain activity” value worked out at 37400.

For the sequence “MEFPTPTCFLSFFSFFFHIVFVAYCVAYFSLSRFLFVPSFFFLFLLSYFRLLQ”, the “transcriptional activation domain activity” value turned out to be 67500.

On to “YLIILILFCFCHLWELDRWAHSLASQEKLRYSCVIGLTIFRLRCPLSLTKDAP”, for which the “transcriptional activation domain activity” value turned out to be 48900.

Regarding “IIQCLVLGKYTKCAPRTIETLLLYLHLKYNQHEDNQMEIWVLLGVIVRLALRM”, the “transcriptional activation domain activity” value stood at 44700.

“MVKGRGRGGQVLFLFLFLLLFFLFLFLSLFLFILFFLALFFWTFFVLFCFVWG”: the “transcriptional activation domain activity” value came out at 66200.

For “MLCRLCFFVFTRAVLLYLIGLFFNLFRLCLSLRFNIFVSFVFLDFCMSFPSTL”, the “transcriptional activation domain activity” value is 40200.

As to “EMIMGFFFKNIVWTLTLFWYQIFCQFNGSMMFDYALVTLFNLVFTSLPIMCMG”, the “transcriptional activation domain activity” value was found to be 52100.

For the sequence “MVHIRTVVSFIFLVAGVLWTLFYLFIYFCLWDRRGHYVFLFCFCGCSRFMHFV”, the “transcriptional activation domain activity” value worked out at 56500.

For the sequence “KWVLSILEFFVVHGFFSVTRKNAKSSLQAIHHVPNPKFSDTMKQRCRDRLFTC”, the “transcriptional activation domain activity” value came to 51700.

As for “LLTGSSALLLPVIWPRLSASLRFPVVLLLPLPYIFTYLCVYPPTPFSPHITPT”, the “transcriptional activation domain activity” value came to 59300.

As to “ATAARRPRADEGEEGLDEATDAAAAPAAAAENGEAAAAKPKKNRKSKAAKAAA”, the “transcriptional activation domain activity” value is 16300.

Turning to “MVFGHWCVSRLSHNSQILFLLTMLSFPVCENFFGFICNFIILLFARRTLFFVL”, the “transcriptional activation domain activity” value came to 59500.

For “KTIGKQDPYCAARLGKEAKKTETDRRGGQTPRWDQELRFTVHDSPDYYQLKVS”, the “transcriptional activation domain activity” value is 55000.

As for “KVAEPGSKVSLRAPVDPNAPAPKPKKGKDGKEIKEEPKMIEKVVDSIYLHVQT”, the “transcriptional activation domain activity” value is 41000.

In the case of “SPDQDPHRPKVESGGEEQEQLGPPKKKRRRQALNCTECKRRKIRCDRSQPCGP”, the “transcriptional activation domain activity” value turned out to be 18300.

As for “LIALPCLMAFATICFAFVAWKLYGEFAWTIYKHISADLRLKRRYLTYQIYIAL”, the “transcriptional activation domain activity” value was 50200.

The values above are taken from the supplement of paper PMC12636428.
